{"source": "the supplement of paper PMC10567573", "parents": {"B1": {"name": "SLC25A39 (parent)", "chain": "LTSDLYAPMVAGALARLGTVTVIS"}, "B2": {"name": "KLHL12 (parent)", "chain": "LDYTADEDGVWYSVAPMNVRRGLA"}}}
{"variants_of": "B1", "assay": "protein stability index of a GFP-peptide fusion (GPS, HEK-293T) (PSI 1-6); higher = more stable", "conditions": "c terminus: a fixed tail appended"}
{"variant": "L5D", "protein stability index": 1.89}
{"variant": "L5Q", "protein stability index": 1.65}
{"variant": "L5G", "protein stability index": 2.8}
{"variant": "L5H", "protein stability index": 1.34}
{"variant": "L5Y", "protein stability index": 3.05}
{"variant": "L5M", "protein stability index": 2.95}
{"variant": "L5I", "protein stability index": 1}
{"variant": "L5T", "protein stability index": 1.48}
{"variant": "L5A", "protein stability index": 2.14}
{"variant": "L5S", "protein stability index": 2.12}
{"variant": "L5E", "protein stability index": 1.69}
{"variant": "L5C", "protein stability index": 3.99}
{"variant": "L5N", "protein stability index": 1.89}
{"variant": "L5R", "protein stability index": 2.09}
{"variant": "L5K", "protein stability index": 3.21}
{"variant": "L5P", "protein stability index": 2.31}
{"variant": "T2G", "protein stability index": 3.56}
{"variant": "T2E", "protein stability index": 2.15}
{"variant": "T2M", "protein stability index": 3.56}
{"variant": "T2Q", "protein stability index": 2.49}
{"variant": "T2Y", "protein stability index": 4.43}
{"variant": "T2W", "protein stability index": 1.61}
{"variant": "T2K", "protein stability index": 1.57}
{"variant": "T2N", "protein stability index": 2.52}
{"variant": "T2A", "protein stability index": 3.92}
{"variant": "T2S", "protein stability index": 2.68}
{"variant": "T2C", "protein stability index": 4.26}
{"variant": "T2D", "protein stability index": 2.1}
{"variant": "T2H", "protein stability index": 2.88}
{"variant": "Y6M", "protein stability index": 2.09}
{"variant": "Y6F", "protein stability index": 3.72}
{"variant": "Y6R", "protein stability index": 1.47}
{"variant": "Y6G", "protein stability index": 1.13}
{"variant": "Y6C", "protein stability index": 2.31}
{"variant": "Y6S", "protein stability index": 1.34}
{"variant": "Y6Q", "protein stability index": 2.01}
{"variant": "Y6A", "protein stability index": 2.37}
{"variant": "Y6P", "protein stability index": 1.98}
{"variant": "Y6T", "protein stability index": 1.82}
{"variant": "Y6D", "protein stability index": 1.55}
{"variant": "Y6E", "protein stability index": 2}
{"variant": "Y6H", "protein stability index": 2.34}
{"variant": "Y6N", "protein stability index": 1.34}
{"variant": "S3Q", "protein stability index": 1.86}
{"variant": "S3T", "protein stability index": 1.38}
{"variant": "S3K", "protein stability index": 1.13}
{"variant": "S3R", "protein stability index": 2.83}
{"variant": "S3V", "protein stability index": 3.21}
{"variant": "S3F", "protein stability index": 3.67}
{"variant": "S3P", "protein stability index": 1.35}
{"variant": "S3M", "protein stability index": 2.73}
{"variant": "S3G", "protein stability index": 3.59}
{"variant": "S3A", "protein stability index": 2.75}
{"variant": "S3Y", "protein stability index": 2.41}
{"variant": "S3H", "protein stability index": 2.4}
{"variant": "S3N", "protein stability index": 1.56}
{"variant": "S3L", "protein stability index": 3.13}
{"variant": "S3I", "protein stability index": 2.51}
{"variant": "S3D", "protein stability index": 2.96}
{"variant": "D4W", "protein stability index": 3.9}
{"variant": "D4Q", "protein stability index": 2.88}
{"variant": "D4T", "protein stability index": 2.84}
{"variant": "D4Y", "protein stability index": 5.3}
{"variant": "D4S", "protein stability index": 2.07}
{"variant": "D4V", "protein stability index": 3.22}
{"variant": "D4P", "protein stability index": 2.89}
{"variant": "D4R", "protein stability index": 3.25}
{"variant": "D4C", "protein stability index": 4.74}
{"variant": "L1P", "protein stability index": 1.62}
{"variant": "L1A", "protein stability index": 3.53}
{"variant": "L1N", "protein stability index": 2.77}
{"variant": "L1G", "protein stability index": 2.72}
{"variant": "L1S", "protein stability index": 1.41}
{"variant": "L1C", "protein stability index": 2.18}
{"variant": "L1M", "protein stability index": 2.2}
{"variant": "L1H", "protein stability index": 2.01}
{"variant": "L1V", "protein stability index": 1.88}
{"variant": "L1Q", "protein stability index": 1.84}
{"variant": "L1I", "protein stability index": 1.96}
{"variant": "L1T", "protein stability index": 1.75}
{"variant": "L1E", "protein stability index": 2.24}
{"variant": "L1K", "protein stability index": 2.83}
{"variant": "L1D", "protein stability index": 1.76}
{"variants_of": "B2", "assay": "protein stability index of a GFP-peptide fusion (GPS, HEK-293T) (PSI 1-6); higher = more stable", "conditions": "c terminus: a fixed tail appended"}
{"variant": "L23W", "protein stability index": 1.37}
{"variant": "L23C", "protein stability index": 1.93}
{"variant": "L23E", "protein stability index": 2.41}
{"variant": "L23I", "protein stability index": 1.74}
{"variant": "L23G", "protein stability index": 2.29}
{"variant": "L23H", "protein stability index": 2.28}
{"variant": "L23A", "protein stability index": 2.68}
{"variant": "L23V", "protein stability index": 1.79}
{"variant": "L23K", "protein stability index": 2}
{"variant": "L23P", "protein stability index": 2.35}
{"variant": "L23F", "protein stability index": 1.83}
{"variant": "L23M", "protein stability index": 2.38}
{"variant": "L23S", "protein stability index": 2.66}
{"variant": "L23D", "protein stability index": 2.46}
{"variant": "L23T", "protein stability index": 2.19}
{"variant": "L23N", "protein stability index": 2.77}
{"variant": "L23R", "protein stability index": 2.82}
{"variant": "L23Q", "protein stability index": 2.9}
{"variant": "L23Y", "protein stability index": 1.99}
{"variant": "A24Y", "protein stability index": 2.39}
{"variant": "A24C", "protein stability index": 1.77}
{"variant": "A24N", "protein stability index": 2.25}
{"variant": "A24G", "protein stability index": 2.17}
{"variant": "A24Q", "protein stability index": 2.03}
{"variant": "A24H", "protein stability index": 2.13}
{"variant": "A24L", "protein stability index": 2.77}
{"variant": "A24W", "protein stability index": 2.46}
{"variant": "A24P", "protein stability index": 2.24}
{"variant": "A24E", "protein stability index": 1.87}
{"variant": "A24F", "protein stability index": 2.2}
{"variant": "A24S", "protein stability index": 2.17}
{"variant": "A24M", "protein stability index": 1.75}
{"variant": "A24D", "protein stability index": 1.82}
{"variant": "A24V", "protein stability index": 2.26}
{"variant": "A24K", "protein stability index": 2.35}
{"variant": "A24I", "protein stability index": 1.88}
{"variant": "A24T", "protein stability index": 2.11}
{"variant": "A24R", "protein stability index": 1.97}
{"variant": "R20T", "protein stability index": 2.69}
{"variant": "R20W", "protein stability index": 2.05}
{"variant": "R20S", "protein stability index": 2.31}
{"variant": "R20Q", "protein stability index": 1.89}
{"variant": "R20P", "protein stability index": 1.81}
{"variant": "R20V", "protein stability index": 2.49}
{"variant": "R20N", "protein stability index": 1.74}
{"variant": "R20Y", "protein stability index": 1.97}
{"variant": "R21I", "protein stability index": 2.04}
{"variant": "R21K", "protein stability index": 1.8}
{"variant": "R21P", "protein stability index": 1.8}
{"variant": "R21M", "protein stability index": 1.32}
{"variant": "R21G", "protein stability index": 1.78}
{"variant": "R21A", "protein stability index": 2.39}
{"variant": "R21E", "protein stability index": 2.21}
{"variant": "R21H", "protein stability index": 1.75}
{"variant": "R21T", "protein stability index": 2.72}
{"variant": "R21D", "protein stability index": 1.88}
{"variant": "R21F", "protein stability index": 2.85}
{"variant": "R21C", "protein stability index": 2.63}
{"variant": "R21Y", "protein stability index": 1.47}
{"variant": "R21V", "protein stability index": 2.19}
{"variant": "R21Q", "protein stability index": 1.71}
{"variant": "R21N", "protein stability index": 1.65}
{"variant": "R21L", "protein stability index": 2.93}
{"variant": "R21W", "protein stability index": 1.71}
{"variant": "R21S", "protein stability index": 1.72}
{"variant": "G22R", "protein stability index": 2.15}
{"variant": "G22E", "protein stability index": 2.17}
{"variant": "G22Y", "protein stability index": 2.17}
{"variant": "G22D", "protein stability index": 1.79}
{"variant": "G22Q", "protein stability index": 2.22}
{"variant": "G22A", "protein stability index": 1.5}
{"variant": "G22L", "protein stability index": 2}
{"variant": "G22H", "protein stability index": 1.56}
{"variant": "G22T", "protein stability index": 2.31}
{"variant": "G22W", "protein stability index": 1.48}
{"variant": "G22K", "protein stability index": 2.23}
{"variant": "G22M", "protein stability index": 1.95}
{"variant": "G22S", "protein stability index": 1.72}
{"variant": "G22I", "protein stability index": 2.16}
{"variant": "G22C", "protein stability index": 2.27}
{"variant": "G22V", "protein stability index": 1.35}
{"variant": "G22N", "protein stability index": 1.62}
{"variant": "G22P", "protein stability index": 2.21}
{"variant": "G22F", "protein stability index": 1.51}
